From publication PMC5770381 come the findings set out here.

What all share (assay): purified protein
The subject of data set [1] is CC1(C)S[C@@H]2[C@H](NC(=O)[C@H](N)c3ccc(O)cc3)C(=O)N2[C@H]1C(=O)O. As to conditions: Tris-HCl pH 7.4, 35 °C, 20-500 μM substrate.
In data set [2] the test system is CO/N=C(\C(=O)N[C@@H]1C(=O)N2C(C(=O)O)=C(COC(C)=O)CS[C@H]12)c1csc(N)n1. As to conditions: Tris-HCl pH 7.4, 35 °C, 10-100 μM substrate.
Data set [3] concerns C[C@@H](O)[C@H]1C(=O)N2C(C(=O)O)=C(S[C@@H]3CN[C@H](C(=O)N(C)C)C3)[C@H](C)[C@H]12. As to conditions: Tris-HCl pH 7.4, 35 °C, 10-200 μM substrate.

As to “ElBla2 (Erythrobacter litoralis HTCC2594)”, in data set [1], the Km was 39 ± 9 µM, the kcat was found to be 1.4 ± 0.1 s⁻¹ and the kcat/Km stood at 40000 M⁻¹ s⁻¹. In addition, in data set [2], the Km came out at 13 ± 4 µM, the kcat was 0.9 ± 0.1 s⁻¹ and the kcat/Km was determined as 70000 M⁻¹ s⁻¹. In data set [3], the Km was found to be 19 ± 6 µM, the kcat was 2.1 ± 0.2 s⁻¹ and the kcat/Km worked out at 110000 M⁻¹ s⁻¹.
